Experimental data from patent US20090075297A1 (SCHERING, published 2009).
No end group written: not given here.

B1: galanin(10-20) (peptide)
peptide: LLGPHAIDNHR
B2: rat galanin(2-29) (peptide, UniProt P10683 34-61, looked up)
peptide: WTLNSAGYLLGPHAIDNHRSFSDKHGLT
notes: range 2-29; also called Rat galanin 92-29
B3: rat galanin(3-29) (peptide, UniProt P10683 35-61, looked up)
peptide: TLNSAGYLLGPHAIDNHRSFSDKHGLT
notes: range 3-29
B4: 125I-porcine galanin (ligand, UniProt P07480 33-61, looked up)
peptide: GWTLNSAGYLLGPHAIDNHRSFHDKYGLA
modifications: ends and bridges not checked; also: 125I radiolabel, residue not given here
notes: Bought radioligand; also called labeled galanin
B5: rat galanin (ligand, UniProt P10683 33-61, looked up)
peptide: GWTLNSAGYLLGPHAIDNHRSFSDKHGLT
notes: also called galanin itself

Legend:
rat GalR3 receptor [1] = molecular target: T1, rat GalR3 receptor (rat, UniProt O88626 1-370); test: competition with 0.3 nM 125I-porcine galanin on membranes of COS-7 cells transfected with rat GalR3; filtration; Cheng-Prusoff
T1 construct: Full-length receptor (370 amino acids) expressed from pCR3.1 in COS-7 cells; The assay used membrane preparations of the transfected cells; also called rat type 3 galanin receptor; cellular receptors
T1 chain: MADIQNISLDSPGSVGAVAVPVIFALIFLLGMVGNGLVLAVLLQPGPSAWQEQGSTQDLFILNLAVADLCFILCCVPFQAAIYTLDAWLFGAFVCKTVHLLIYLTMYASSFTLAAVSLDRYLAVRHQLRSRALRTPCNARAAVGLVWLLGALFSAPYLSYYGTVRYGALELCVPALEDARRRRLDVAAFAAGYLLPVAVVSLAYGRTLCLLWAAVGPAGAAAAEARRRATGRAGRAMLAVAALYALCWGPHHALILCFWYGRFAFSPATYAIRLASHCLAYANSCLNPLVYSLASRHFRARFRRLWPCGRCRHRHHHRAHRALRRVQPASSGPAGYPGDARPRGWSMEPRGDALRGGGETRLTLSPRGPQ
Method: (§1) Binding of ¹²⁵I-porcine-galanin to the membrane preparations was performed in a buffer containing 25 mM Tris-Cl (pH7.4), 1% bovine serum albumin (w/v), 0.1% bacitracin, 2 μg/ml leupeptin and 10 mM MgCl₂. Ligand saturation plots were performed using 20 μg amounts of the membrane protein in a total volume of 200 μl using 3 μM cold galanin to determine nonspecific binding. Peptide competition studies were performed in a total volume of 200 μl, containing 20 μg of membrane protein and 0.3 nM ¹²⁵I-porcine galanin. Incubations were carried out at room temperature for 1 hour and were terminated by rapid vacuum filtration through MULTISCREEN FB (glass fiber B) Filter Plates (Millipore, Bedford, Mass.) which had been pre-treated with 0.30% polyethylenimine to prevent non-specific binding of the radioligand to the filter. The filters were then washed three times with 100 μl of PBS (pH7.4). All data were analyzed using non-linear regression software (Prism, GraphPad, San Diego, Calif.), and the Ki was calculated using the method of Cheng and Prusoff [Biochem. Pharmacol. 22:3099-3108 (1973)].
The curves shown indicate the fits of the data points by nonlinear regression for one-site binding.

rat GalR3 receptor [2] = molecular target: T1, rat GalR3 receptor; test: radioligand binding to membranes of COS-7 cells transfected with rat GalR3
Method: as §1

| Binder | Ki (rat GalR3 receptor [1]) [nM] | binding result (rat GalR3 receptor [2]) |
| --- | --- | --- |
| B1 | > 1000 | – |
| B2 | 14 | – |
| B3 | > 1000 | – |
| B4 | – | binds |
| B5 | 1.2 | – |
